In article PMC10373542:

Target: SARS-CoV-2 WA-1 stabilized S trimer, HexaPro (SARS-CoV-2) (UniProt P0DTC2)
Assay: BLI

CR3022 monoclonal antibody
fold increase of binding when S protein is bound to WRAIR-2063: 6 fold
